For 1 substance, Kd results are on record in article PMC12447786.

This assay deals with Cys SARS2 Nsp1, fluorescein-labelled (SARS-CoV-2) (UniProt P0DTD1). Nature of the assay: fluorescence polarisation. A general note: In fluorescence polarisation assays a small probe gives low polarisation when free and higher when bound to something large.

As a reminder, the Kd is the concentration at which binding is half-saturated. A higher Kd goes with weaker binding. Regarding “40S ribosomal subunit purified from rabbit reticulocytes (complex)”, the Kd came to 27 nM.
